Our source for the Km, kcat and kcat/Km values is patent US20230242956A1, “POLYPHOSPHATE KINASE MUTANT, ENGINEERED STRAIN AND APPLICATION THEREOF” (ZHEJIANG UNIVERSITY OF TECHNOLOGY, priority 2022, published 2023).

Substrate in data set [1]: Nc1ncnc2c1ncn2[C@@H]1O[C@H](COP(=O)(O)O)[C@@H](O)[C@H]1O
Nature of the data set: Kinetic parameters of wild-type ChPPK (pure enzyme, pseudo-one-substrate kinetic model, ATP by HPLC). It is filed as biochemical, Cytophaga hutchinsonii. Conditions: other: substrate AMP, fixed PPA 1.6 g/L, AMP 0-5.0 mM, pH 7.5, 37° C. As for the experimental part: A PPK protein sequence derived from Cytophaga hutchinsonii (ChPPK, GenBank accession number: ABG57400.1) in GenBank was optimized for E. coli codon preference and fused to a C-terminal 6His tag. The resulting recombinant sequence of the gene ChPPK with a length of 930 bp was synthesized by Tsingke Biotechnology Co., Ltd. (Beijing, China), the nucleotide sequence is shown in SEQ ID NO: 1, and the amino acid sequence of the encoded protein is shown in SEQ ID NO: 2.
(2) Pure enzyme: 5 mL of the crude enzyme solution was diluted with 40 mL of potassium phosphate buffer (20 mM, pH 7.2), and then applied to a HisTrap HP purification column of GE Healthcare (10 mL column, pre-washed with a pH 7.2, 20 mM potassium phosphate buffer containing 500 mM NaCl). […] The concentration of the pure enzyme was determined by Beyotime BCA Protein Assay Kit(P0012), and the amount of the pure enzyme used in the following examples was calculated by protein content.
0.4 mg of the crude enzyme solution prepared by the method in Example 2 or 0.05 mg of the pure enzyme, polyphosphoric acid (PPA) at a final concentration of 1.6 g/L, adenosine phosphate (AMP) at a final concentration of 2.25 mM, and MgCl2 at a final concentration of 10 mM were added to 10 mL of 50 mM potassium phosphate buffer (pH 7.5). […] The ATP content in the solution was determined by HPLC method. […]
(§1) The wild-type Ecoli.BL21(DE3)-ChPPK constructed by the method of Example 1 and the engineered strain Ecoli.BL21(DE3)-ChPPK/A79G/S106C/I108F/L285P constructed by the method of Example 6 were used to prepare pure enzymes by the method of Example 2. Km and Kcat were calculated by pseudo-one-substrate kinetic model. […]

Substrate in data set [2]: Nc1ncnc2c1ncn2[C@@H]1O[C@H](COP(=O)(O)O)[C@@H](O)[C@H]1O
Briefly: Kinetic parameters of mutant ChPPK/A79G/S106C/I108F/L285P (pure enzyme, pseudo-one-substrate kinetic model, ATP by HPLC). It is filed as biochemical, Cytophaga hutchinsonii. Conditions: other: substrate AMP, fixed PPA 1.6 g/L, AMP 0-5.0 mM, pH 7.5, 37° C. As for the experimental part: (2) Pure enzyme: 5 mL of the crude enzyme solution was diluted with 40 mL of potassium phosphate buffer (20 mM, pH 7.2), and then applied to a HisTrap HP purification column of GE Healthcare (10 mL column, pre-washed with a pH 7.2, 20 mM potassium phosphate buffer containing 500 mM NaCl). The resulting purification column was eluted with 100 mL of washing buffer (a pH7.2, 20 mM potassium phosphate buffer containing 500 mM sodium chloride and 50 mM imidazole) at a rate of 0.5 mL/min to remove the absorbed protein impurities, and then eluted with an elution buffer (a pH7.2, 20 mM potassium phosphate buffer containing 500 mM sodium chloride and 50 mM imidazole) at a speed of 0.5 mL/min to collect an elution solution containing the target protein. Then the elution solution containing the target protein was dialyzed in a dialysis bag (the MWCO of the dialysis bag was 14 KDa) with a pH7.2 of 20 mM potassium phosphate buffer for 48h, and the retentate was taken as pure enzyme. The concentration of the pure enzyme was determined by Beyotime BCA Protein Assay Kit(P0012), and the amount of the pure enzyme used in the following examples was calculated by protein content.
0.4 mg of the crude enzyme solution prepared by the method in Example 2 or 0.05 mg of the pure enzyme, polyphosphoric acid (PPA) at a final concentration of 1.6 g/L, adenosine phosphate (AMP) at a final concentration of 2.25 mM, and MgCl2 at a final concentration of 10 mM were added to 10 mL of 50 mM potassium phosphate buffer (pH 7.5). The reaction solution was incubated at 37° C. for 5 min, and then 10 mL of 0.2 M phosphoric acid solution was added to terminate the reaction. The ATP content in the solution was determined by HPLC method. […]
as §1

As a reminder, the Km is the substrate concentration at which the rate is half of its maximum. What is called kcat is the number of substrate molecules converted per active site and unit of time at saturation. The kcat/Km is the second-order rate constant that governs catalysis at low substrate concentration.

B1: Cytophaga hutchinsonii polyphosphate kinase (ChPPK), wild-type, C-terminal 6His tag, SEQ ID NO: 2 (Cytophaga hutchinsonii ATCC 33406) (protein)
chain: MATDFSKLSKYVETLRVKPKQSIDLKKDFDTDYDHKMLTKEEGEELLNLGISKLSEIQEKLYASGTKSVLIVFQAMDAAGKDGTVKHIMTGLNPQGVKVTSFKVPSKIELSHDYLWRHYVALPATGEIGIFNRSHYENVLVTRVHPEYLLSEQTSGVTAIEQVNQKFWDKRFQQINNFEQHISENGTIVLKFFLHVSKKEQKKRFIERIELDTKNWKFSTGDLKERAHWKDYRNAYEDMLANTSTKQAPWFVIPADDKWFTRLLIAEIICTELEKLNLTFPTVSLEQKAELEKAKAELVAEKSSDHHHHHH
Take B1: in data set [1], the Km was determined as 1660 ± 100 µM, the kcat was 1.01 ± 0.05 s⁻¹ and the kcat/Km was determined as 610 M⁻¹ s⁻¹.

B2: Cytophaga hutchinsonii polyphosphate kinase (ChPPK) mutant A79G/S106C/I108F/L285P (parent SEQ ID NO: 2) (Cytophaga hutchinsonii ATCC 33406; … (protein)
chain: MATDFSKLSKYVETLRVKPKQSIDLKKDFDTDYDHKMLTKEEGEELLNLGISKLSEIQEKLYASGTKSVLIVFQAMDAGGKDGTVKHIMTGLNPQGVKVTSFKVPCKFELSHDYLWRHYVALPATGEIGIFNRSHYENVLVTRVHPEYLLSEQTSGVTAIEQVNQKFWDKRFQQINNFEQHISENGTIVLKFFLHVSKKEQKKRFIERIELDTKNWKFSTGDLKERAHWKDYRNAYEDMLANTSTKQAPWFVIPADDKWFTRLLIAEIICTELEKLNLTFPTVSPEQKAELEKAKAELVAEKSSDHHHHHH
For the protein B2, in data set [2], the Km turned out to be 1670 ± 180 µM, the kcat was found to be 16.3 ± 1.78 s⁻¹ and the kcat/Km was determined as 9780 M⁻¹ s⁻¹.
